The values below come from patent US20260092121A1 (TALEM THERAPEUTICS, published 2026).

The assay addresses T1, biotinylated His-Avi-tagged human CD3δ/ε heterodimer (human, UniProt P07766 23-126; P04234 22-105, biotinylated).
T1 construct: bought, expressed from HEK293; also called CD30/8; Biotin-CD3
Put plainly: ELISA.

T1 sequence (P07766 23-126, stated change not applied, chain 1 of 2): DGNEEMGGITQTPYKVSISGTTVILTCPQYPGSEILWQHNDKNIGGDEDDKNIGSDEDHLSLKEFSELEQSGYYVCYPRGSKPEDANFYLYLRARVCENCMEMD
T1 sequence (P04234 22-105, stated change not applied, chain 2 of 2): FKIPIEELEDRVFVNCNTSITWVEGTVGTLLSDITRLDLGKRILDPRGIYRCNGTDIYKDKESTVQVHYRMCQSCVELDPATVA

B1: anti-CD3 Fab clone 3-A03 (Fab, V domains shown)
VH: EVQLVESGGGVVQPGRSLRLSCAASGFTFSSYAMHWVRQAPGKGLEWVSAISGSGGSTYYADSVKGRFTISRDNSKNTLYLQMNSLRAEDTAVYYCARDAHDYWGQGTLVTVSS
VL: QSVLTQPPSVSAAPGQKATISCSGGSSNLGNNYVSWYQQLPGTAPKLLIYDNNKRPSGIPDRFSGSKSGTSAALAITGLQTGDEADYYCGTWDSSLSAGVFGGGTKLTVL
notes: Fab, HEK293
B1 gave a concentration for a half-maximal effect (EC50) of 5.2 mg/L.

B2: anti-CD3 Fab clone 4-A01 (Fab, V domains shown)
VH: QVQLVQSEGGLVQPGGSLRLSCAASGFSFGSSAMSWVRQAPGRGLEWVSGISHSGSTTYYADSVKGRFTISRDNSKNTLYLQMNSLRVEDTAVYYCAKIGAYGYYFHYWGQGTLVTVSS
VL: NFMLTQPHSVSESPGKTVTISCTGSGGNIGNNYVQWYQQRPDSPPSTVIYDDSQRPSGVPDRFSGSIDRSSNSASLTISGLRTEDEADYYCQSSDSGRVVFGGGTKLTV
notes: Fab, HEK293
B2 gave an EC50 of 19.5 mg/L.

B3: anti-CD3 Fab clone 4-G03 (Fab, V domains shown)
VH: QVQLLQSAGGLVQPGGSLRLSCAASGYSFGSSAMSWVRQAPGRGLEWVSGISHSGSTTYYADSVKGRFTISRDNSKNTLYLQMNSLRAEDTAVYYCAKIGAYGYYFHYWGQGTLVTVSS
VL: NFMLTQPHSVSESPGKTVTISCTGNGGNIASNYVQWYQHRPDSAPIAVIYDDSQRPSGIPDRFSGSIDRSSNSASLTISGLRPEDEADYYCQSSDNANVVFGGGTKLTVL
notes: Fab, HEK293
B3 displayed an EC50 of 16.8 mg/L.

B4: anti-CD3 Fab clone 7-E01 (Fab, V domains shown)
VH: QVQLQQSGGGLVQPGGSLRLSCAASGFSFGSSAMSWVRQAPGRGLEWVSGISHSGSTTYYADSVKGRFTISRDNSKNTLYLQMNSLRVEDTAVYYCAKIGAYGYYFHYWGQGTLVTVSS
VL: NFMLTQPHSVSESPGRTVTISCTRSSGSIASNYVQWYQQRPGSAPTTVIYEDNQRLSGVPDRFSGSIDRSSNSASLTISGLKTEDEADYYCQSSDDSNHLVFGGGTKLTVL
notes: Fab, HEK293
Take B4: the EC50 turned out to be 7.9 mg/L.

B5: anti-CD3 Fab clone 5-A05 (Fab, V domains shown)
VH: QVQLVQSGAEGKKPGSSVKVSCKASGGTFSSYAISWVRQAPGQGLEWMGGIIPIFGTANYAQKFQGRVTITADESTSTAYMELRSLRSDDTAVYYCARDAVVVADSGSMDVWGQGTTVTVSS
VL: not shown
notes: Fab, HEK293
The molecule B5 returned an EC50 of 4.3 mg/L.

B6: anti-CD3 Fab clone 1-H01 (Fab, V domains shown)
VH: QVQLVQSGAEVKKPGSSVKVSCKASGGTFSSYAISWVRQAPGQGLEWMGGIIPIFGTANYAQKFQGRVTITADESTSTAYMELSSLRSEDTAVYYCARDAVVVADSGSMDVWGQGTTVTVSS
VL: not shown
notes: Fab, HEK293
Molecule B6 gave an EC50 of 6.8 mg/L.

B7: anti-CD3 Fab clone 5-C03 (Fab, V domains shown)
VH: QVQLQQSGPGLVKPSQTLSLTCAISGDSVSSNSAAWNWIRQSPSRGLEWLGRTYYRSKWYNDYAVSVKSRITINPDTSKNQFSLQLNSVTPEDTAVYYCATWGMDVWGQGTTVTVSS
VL: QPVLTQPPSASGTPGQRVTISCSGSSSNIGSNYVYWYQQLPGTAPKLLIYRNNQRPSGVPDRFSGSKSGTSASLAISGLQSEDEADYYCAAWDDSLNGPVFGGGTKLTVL
notes: Fab, HEK293
With B7, the EC50 is 23.9 mg/L.

B8: anti-CD3 Fab clone 6-C04 (Fab, V domains shown)
VH: QVQLQQSGPGLVKPSQTLSLTCAISGDSVSSNSAAWNWIRQSPSRGLEWLGRTYYRSKWYNDYAVSVKSRITINPDTSKNQFSLHLNSVTPEDTAVYYCATWGMDVWGQGTMVTVSS
VL: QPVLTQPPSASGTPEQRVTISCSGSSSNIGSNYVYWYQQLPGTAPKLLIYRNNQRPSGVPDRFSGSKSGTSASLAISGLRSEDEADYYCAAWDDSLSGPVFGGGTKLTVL
notes: Fab, HEK293
B8 yielded an EC50 of 47.7 mg/L.

B9: anti-CD3 Fab clone 2-C02 (Fab, V domains shown)
VH: QVQLQQSGPGLVKPSQTLSLTCAISGDSVSSNSAAWNWIRQSPSRGLEWLGRTYYRSKWYNDYAVSVKSRITINPDTSKNQFSLHLNSVTPEDTAVYYCATWGMDVWGQGTTVTVSS
VL: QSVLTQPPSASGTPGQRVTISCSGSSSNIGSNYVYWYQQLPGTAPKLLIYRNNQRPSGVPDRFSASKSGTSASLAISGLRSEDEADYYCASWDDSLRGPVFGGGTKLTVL
notes: Fab, HEK293
As to B9, the midpoint of the response, the EC50, lay at 23.9 mg/L.

B10: anti-CD3 Fab clone 1-C12 (Fab, V domains shown)
VH: QVQLQQSGPGLVKPSQTLSLTCAISGDSVSSNSAAWNWIRQSPSRGLEWLGRTYYRSKWYNDYAVSVKSRITINPDTSKNQFSLQLNSVTPEDTAVYYCARGITGTGYGMDVWGQGTLVTVSS
VL: QSVLTQPPSASGTPGQRVTISCSGSSSNIGRNHVYWYQQLPGTAPKLLIYNNDQRPSGVPDRFSGSKSGTSGSLTISGLQAEDEADYYCAAWDDSLSSGVFGGGTKVTVL
notes: Fab, HEK293
On to B10, for which the EC50 worked out at 19.2 mg/L.
